From the nanobody polyreactivity screen of Harvey et al. (2022)

Test: yeast display, Sf9 membrane polyspecificity reagent, FACS + sequencing; frameworks hold sequencing errors
Method in brief: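 Sorting gates, low and high (top ~1%), were placed on anti-HA fluorescence to track expression and on streptavidin fluorescence to track reagent binding. A clone's polyreactivity label is taken from the gate it came out of. The reagent was 10% biotinylated, detergent-solubilized Sf9 membrane, applied for 1 hour at 4 °C to galactose-induced yeast display cells.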

Row | Sequence | polyreactivity (PSR sort gate)
1 | QVQLVESGGGVVQAGGSLRLRCAASGRTFGQNVMGWYRQAPGKERELVAAISWSGARTYYADSVKGRFTISRDNVKNTVYLQMNSLNPEDTAVYYCNAPPYAYYGMYYWGQGTQVTVSS | high polyreactivity
2 | QVQLVESGGGVVQAGGSLRLSCAASGFIFNAYAMGSYRQAPGNERELVAAINTSGGRTNYADSVKGRFTISRDNAKNTVYLQMNSLKPEDTAVYYCAARNRFGGNYWGQGTQVTVSS | high polyreactivity
3 | QVQLVESGGGVVQAGGSLRLSCAASGFISKLYAMGWYRQAPGKEREMVAAISSSGTSTYYADSVKGRFTISRDHANNTVYLQMNSLKPEDTAVYYCNARWYVRAYEYDYWGQGTQVTVSS | low polyreactivity
4 | QVQLVESGGGVVQAGGSLRLSCAASGFTFGVYAMRGYRQAPGKERELVAAISSRGGSTYYADSVKGRFTISRDNPTNPVYLQMNSLKPEDTAVYYCAKRLGNTVGKDDYWGQGTQVTVSS | low polyreactivity
5 | QVQLVESGGGVVQAGGSLRLSCAASGFTYVYNAIGWYRQAPGKDMELVATISWRGGSTYADSVKGRFTISRDNAKNTVYLQINSRKPEDTAIYYCNAASRVSQAMDYWGQGTQVTVSS | high polyreactivity
6 | QVQLVESGGGVVQAGGSLRLSCAASGITFGWDAMGWYRQAPGKERELVASISSSGSTNYADSVKGRFTISRDNAKNTVYLQMNSLKPEDTAVYYCNKDYLLRHYYIYVIEGDYWGQGTQVTVSS | low polyreactivity
7 | QVQLVESGGGVVQAGGSLRLSCAASGITFRSYLMGWYRQAPGKEREFVAAITGSAGSTYYADSVKGRFTISRDNAKTTVYLQINSLKAEDTAVYYCAARVRYVNPKYYYLGQGTQVTVSS | high polyreactivity
8 | QVQLVESGGGVVQAGGSLRLSCAASGITIEANAMGLYRQAPGKERELVAAIDRSGGSKYYADSVKGRFTISRDNAKNTVYLQMNSLKPEDTAVYYCAADGRASVGGLGDDYWGQGTQVTVSS | low polyreactivity
9 | QVQLVESGGGVVQAGGSLRLSCAASGRIFDLYAMGWYRQAPGKERELVATISGSGGSTYYADSVKGRFTISRDNAKNTVYLQMNSLKPEDTAVYYCAAVSVSSWYDYWGQGTQVTVSS | low polyreactivity
10 | QVQLVESGGGVVQAGGSLRLSCAASGRIFGPNDMGWYRQAPGKGRELVAAITDSGDITYYADSVKGRFTISRDTAKNTVNVQMNCLKPEDTAVNYFAADHTYENEYRGQGTQVTVSS | low polyreactivity
11 | QVQLVESGGGVVQAGGSLRLSCAASGRIFYGNAMGWYRQAPGKERELVAAISSGTSTNYADSVKGRFTISRDNAKNTVYLQMTSLKPEDTAVYYCAAGSYSRYLYSLYFDFDYWGQGTQVTVSS | low polyreactivity
12 | QVQLVESGGGVVQAGGSLRLSCAASGSIFFLYAMGWSRQATGKEREFVAAITGTADSTYYADSVKGRFTISRDDAKNTVYLQMNSLKPEDTAVYYCATDYWSSVKLDDYWGQGTQVTVSS | low polyreactivity
13 | QVQLVESGGGVVQAGGSLRLSCAASGSTFGRYAMGWYRQAPGKERELVAAISWSGGSTYYADSVKGRFTISRDNAKNTVYLQMNSLKPEDTAVYYCNKYWRGSSSRDDYWGQGTQVTLSS | high polyreactivity
14 | QVQLVESGGGVVQAGGSLRLSCAASGSTFGYYTMGWNRQAPGKERELVAAISRSGCRTYYADSVKGRFTISRDNAMNAVYLHMTSLKPDYTAVYYCNADGTRYAGDDYWGQGSQVTVSS | high polyreactivity
15 | QVQLVESGGGVVQAGGSLRLSCAASGSTSYFNVIGWYRPAPGKERELVAAISWSGGSTYADSVKGRFTISRDNAKNTVYLQMNSLKREDTAVYYCNKDYGYVQLRFSGPGYYWGQGTQVTVSS | low polyreactivity
16 | QVQLVESGGGVVQAGGSLRLSCAASGTIFYENAMGWYRQAPGKEREFVATIDLIGDRTYYADSVKGRFTISRDNAKNTVYLQMNSLKPEDTAVYYCAAERVGVFFRYDYWGQGTQVTVSS | low polyreactivity
17 | QVQLVESGGGVVQAGGSLRLSCAATGSRYWDYPMGWYRQAPGKERELVAAISTSGGSTYYADSVKGRFTISRDNAKNTVYLQMNSLNPEDTAVYYCATRVRTGSVGNFNYWGQGTQVTVSS | high polyreactivity
18 | QVQLVESGGGVVQAGGSLRLSCAAYGSIFEANDMGWYRQAPGKERELVAAIDANTGSTYYADSVKGRFTISLDNAKNTVYLQMNSLKPEVTAVYYCNAQVYLQTAYDYWGQGTQVSVSS | low polyreactivity
19 | QVQLVESGGGVVQAGGSLRLSCASSGSIFGPYVMGWYRQAPGKERELVAAISKSGGSTYYADSVKGRFTISRDNAKNTVFLLMNSLKPEDTAVYYCATDYLGGGKRYYYWGQGTQVTVSS | high polyreactivity
20 | QVQLVESGGGVVQAGGSLRLTCAASGLTFNIYSLGWYRQAPGKEREFDATISSSGGGTYYADSVKGRFSISRDHAKNTVYVQLHSLPPEDTAVYYCARDSPDHVTYLHYHYDYWGQGTQVTVSS | low polyreactivity
21 | QVQLVESGGGYVQAGGSLRLSCAASGSIFRGYAMGWSRQAPGKEWELVATIDSSAGSTYYADSVKGRYTISRDNAKNTVYLQMNSLKPEDTAVFYCATDPYGYYYSGYDYWGQGTQVTVSW | low polyreactivity
22 | QVQLVESGGGYVQAGGSLRLSCAASGSTFKGYAMGLYRQAPGKEMELVAAITWIGGSTTYADSVKGRFTISCDNAKNTVYLQMNSLKPEDTAVYYCAADNFWYFLSATEDYWGQGTQVTVSS | low polyreactivity

Row | Sequence | polyreactivity (PSR sort gate)
23 | QVQLVESGGPLVKSRGSLRLICAASGRTYCEYSMGWYRQAPGKERELVADITNGSRTYYADSVKGRFTISRDNAKNTVYLQMNSLKPEDTSVYYCAADWWKEVDYWGQGTEVTVSS | low polyreactivity
24 | QVQLVESGGRKVQAGGSLRLSCAASGSTIWPYAMGCYRQAPAKERELVAAISNGGGTKYADSVKGRFTISRDNAKNTVYLQMNSLKPEHTAVYYCAKTLWTGRAWYDYWGQGTQVTVSS | high polyreactivity
25 | QVQLVESGGRLLQEGGSLRLSCAASGLIVTYYTMGWYRPAPGKERELVASIDSGGSTNYADSVQGRFTISRDNAKNTVYLQLNCLKPEDTAVEFCAADYDGWFYEMGYWGQGTQVTVSS | low polyreactivity
26 | QVQLVESGGRLVEAGGSLRISWAASGLIFGYNAMGWYRQAPGKERELVAAISGSGGRTYYADSVKGRFTISRDNAKNTVYLQMNSLKPEDTAVFYCAVADRRGLGYWGQGTQVTVSS | high polyreactivity
27 | QVQLVESGGRLVEAGGSLRLSCAASGSTISGNAMGWYRQAPGKERELVAEITSDDSTNYADSVKGRFTISRDNAKNSVYLQMNSLKPEDTAVYYCAADVTYPYYQDHSVDYFIGYAYWRQGTQVTVSS | low polyreactivity
28 | QVQLVESGGRLVQAGGILRLSCAASGRSFYFYAMGWYRKAPGKERELVAAITRGDDTNYADSVKGRFTISRDNAKNTVNLQMNSLKPEDTAVYYFGYATEYDYWGQGTQVTVSS | low polyreactivity
29 | QVQLVESGGRLVQAGGILRLSCAASGSTFSPYAKGRNRQAPGKERELVAGITSSGGDTYYADSVKGRFTISRDNAKNTVYLLMNSLKPEDTAVYYCAADWWVLGQLWFDYWGHGTQVTVSS | low polyreactivity
30 | QVQLVESGGRLVQAGGILRLSCAASGSTSHYYAMGWSRQAPGKERELVASITCSGGSTYYADSVKGRFTISRDNAKNTVYLQMNSLKPEATAVYYCNAQERRVRDYDYWGQGTQVTVSS | low polyreactivity
31 | QVQLVESGGRLVQAGGRHRLSGAASRNIFDRYALGWNLQAPGKESDLVAGITWSGGSTYYADSVKGRFTISRDNAKNTVYLHMNSLKPEDTAVYYCGQANYYWGQGTQVTVSS | low polyreactivity
32 | QVQLVESGGRLVQAGGSLLLSCAASGFTFDDYAMGRYRQAPGTERELVASITTSGASKYYADSVKGRFTISRDNAKNPVYLQMNSLKPEDTAVYYCAVDNDSYTSPRAGDDYWGQGTQVTVSS | low polyreactivity
33 | QVQLVESGGRLVQAGGSLRLICAASGLTIRSYAMGWYRQAPGKERELVAAISDSGDSTYYADSVKGRFTISRDNAKNTVYFQMNSLKPEDTAVYYCAVEYSYEYEFWGQGTQVTVSS | low polyreactivity
34 | QVQLVESGGRLVQAGGSLRLISAASGFTFRAYAMGWYRQAPGKERELVAAINISGGSTYYADSVKGRFTISRDNAKKTVYLKMNSLKPEDTAVYYCAADWPEDWYTEYGYWGQGTQVTVSS | low polyreactivity
35 | QVQLVESGGRLVQAGGSLRLLCAASGSTFRYYAMGWYRPAPGKERELLAAISRSGGRTYYADSVKGRFTMSRDNAKTTVYLQMKSLKPEDTAVYDCATRGDGSSWGDYDYWGQGTQVTVSS | high polyreactivity
36 | QVQLVESGGRLVQAGGSLRLRCAASGSTFMSNAMGWYRPAPGKERELVAAITGSGGNTYYADSVKGRFTISRDNAKNTVYLQMNSLKPEDTAVYYCAAVAPRSNYWRGYYYWGQGTQVTVSS | high polyreactivity
37 | QVQLVESGGRLVQAGGSLRLSCAASGFIFDDYDIGWYTQAPGKERELVDAISWSGGSTYYEDSLKGRFTISRDNAKNTVYLQMNSLKPEDTAVYYCNADYYRSRYDYWGQGTQVTVSS | high polyreactivity
38 | QVQLVESGGRLVQAGGSLRLSCAASGFIFKYYAMGWYRQAPGKEREFVAAITWSGSSTNYADSVKGRFTISRDNAKNTVYLQMNSLKPEDTAVYYCNADRKYYKYDYWGQGTQVTVSS | high polyreactivity
39 | QVQLVESGGRLVQAGGSLRLSCAASGFIFYQYAMGWYRQAPGKERELVAVISRTGSTSYADSVKGRFTISRDNAKNSVYLQLNSLKAEDTAGYYCAKKRALRYYGYDYWGQGTQVTVSS | high polyreactivity
40 | QVQLVESGGRLVQAGGSLRLSCAASGFTFGAYAMGWYRQAPGKERELVATIRYSGDSTYYADSVKGRFTISRDNAKNTVYLQMNSLKPEDTAVYYCAADVYGGIGYDYWGQGTQVTVSS | low polyreactivity
41 | QVQLVESGGRLVQAGGSLRLSCAASGFTFNRYAMGGYRHAPGKERELVARITRGGSTKYADSVKGRFTISRDNAKNTVYLQMNSLKPEDTAVYYCAADYGGFLGYDYWGQGTQVTVSS | high polyreactivity
42 | QVQLVESGGRLVQAGGSLRLSCAASGFTFPWYTMGWYRQPPGKEREFVAAITVSGGSTYYADSVKGRFTISRDNAKNSVYLQMNSLKPEDTAVYYCARDGRVVYDSRYDYWGQGTQVTVSS | low polyreactivity
43 | QVQLVESGGRLVQAGGSLRLSCAASGINFGYYAMGLYRQAPGKEMELVAAINKSGTSTYYADSVKGRFTISRDNAKNTVYLQMNSLKPEDTAVYYCAVDYARDKGYPYGYWGQGTQVTVSS | low polyreactivity
